The values below come from patent US20180155451A1 (published 2018).

For this test, the target named is T1, FcγRIa extracellular domain with C-terminal His tag (human, UniProt P12314 16-292).
T1 construct: extracellular domain; Expressed in FreeStyle293 cells; used as analyte in Biacore; also called FcgRI; 1a; not shown: His tag at the C terminus
As to the kind of experiment: SPR (Biacore), captured antibody, FcγRIa analyte; relative to GpH7-B3/GpL16-k0 = 100. A general note: Surface plasmon resonance follows binding to a sensor surface in real time, without labels.

T1 sequence (P12314 16-292): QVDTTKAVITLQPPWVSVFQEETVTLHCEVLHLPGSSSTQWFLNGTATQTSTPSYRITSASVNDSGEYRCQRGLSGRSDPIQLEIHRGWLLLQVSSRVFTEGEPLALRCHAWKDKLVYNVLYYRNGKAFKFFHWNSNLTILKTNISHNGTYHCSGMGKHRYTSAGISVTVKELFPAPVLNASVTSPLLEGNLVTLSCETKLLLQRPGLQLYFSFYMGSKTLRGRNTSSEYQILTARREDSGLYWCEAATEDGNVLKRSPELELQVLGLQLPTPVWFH

B1: GpH7-B3 variant (A330_01G)/GpL16-k0 (antibody, human IgG1, kappa)
heavy: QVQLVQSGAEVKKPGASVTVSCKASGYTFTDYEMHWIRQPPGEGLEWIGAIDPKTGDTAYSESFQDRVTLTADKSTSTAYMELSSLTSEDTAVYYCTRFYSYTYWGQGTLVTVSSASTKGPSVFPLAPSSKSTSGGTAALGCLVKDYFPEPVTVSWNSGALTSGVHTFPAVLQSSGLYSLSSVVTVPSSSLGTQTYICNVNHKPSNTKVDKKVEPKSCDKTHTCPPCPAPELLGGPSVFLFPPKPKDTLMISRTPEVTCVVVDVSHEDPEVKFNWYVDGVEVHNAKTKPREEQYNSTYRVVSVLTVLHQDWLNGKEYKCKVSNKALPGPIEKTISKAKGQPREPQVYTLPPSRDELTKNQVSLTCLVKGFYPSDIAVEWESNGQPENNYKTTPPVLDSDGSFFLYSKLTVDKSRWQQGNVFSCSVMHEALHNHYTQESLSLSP
light: DIVMTQSPLSLPVTPGEPASISCQASESLVHSNRNTYLHWYLQKPGQSPQLLIYKVSNRFSGVPDRFSGSGSGTDFTLKISRVEAEDVGVYYCSQNTHVPPTFGQGTKVEIERTVAAPSVFIFPPSDEQLKSGTASVVCLLNNFYPREAKVQWKVDNALQSGNSQESVTEQDSKDSTYSLSSTLTLSKADYEKHKVYACEVTHQGLSSPVTKSFNRGEC
notes: Homodimerized; both H chains altered; also called Ho Ab A330_01G
With B1, the Ho/Con_1a was 106 % of control.

B2: GpH7-B3 variant (I336_13S)/GpL16-k0 (antibody, human IgG1, kappa)
heavy: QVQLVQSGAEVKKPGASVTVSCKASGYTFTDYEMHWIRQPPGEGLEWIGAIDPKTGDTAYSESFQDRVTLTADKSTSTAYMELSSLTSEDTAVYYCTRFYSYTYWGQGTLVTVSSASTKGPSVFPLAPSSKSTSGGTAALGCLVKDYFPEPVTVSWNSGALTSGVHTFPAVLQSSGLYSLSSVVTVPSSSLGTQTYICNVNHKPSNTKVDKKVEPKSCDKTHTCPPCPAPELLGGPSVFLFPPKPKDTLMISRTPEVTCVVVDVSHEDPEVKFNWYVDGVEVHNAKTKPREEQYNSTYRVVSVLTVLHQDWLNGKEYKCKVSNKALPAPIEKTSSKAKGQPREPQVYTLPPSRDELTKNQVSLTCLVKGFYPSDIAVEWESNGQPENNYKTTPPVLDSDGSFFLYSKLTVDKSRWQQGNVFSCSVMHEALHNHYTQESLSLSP
light: DIVMTQSPLSLPVTPGEPASISCQASESLVHSNRNTYLHWYLQKPGQSPQLLIYKVSNRFSGVPDRFSGSGSGTDFTLKISRVEAEDVGVYYCSQNTHVPPTFGQGTKVEIERTVAAPSVFIFPPSDEQLKSGTASVVCLLNNFYPREAKVQWKVDNALQSGNSQESVTEQDSKDSTYSLSSTLTLSKADYEKHKVYACEVTHQGLSSPVTKSFNRGEC
notes: Homodimerized; both H chains altered; also called Ho Ab I336_13S
As to B2, the Ho/Con_1a is 110 % of control.

B3: GpH7-B3 variant (D265_10E)/GpL16-k0 (antibody, human IgG1, kappa)
heavy: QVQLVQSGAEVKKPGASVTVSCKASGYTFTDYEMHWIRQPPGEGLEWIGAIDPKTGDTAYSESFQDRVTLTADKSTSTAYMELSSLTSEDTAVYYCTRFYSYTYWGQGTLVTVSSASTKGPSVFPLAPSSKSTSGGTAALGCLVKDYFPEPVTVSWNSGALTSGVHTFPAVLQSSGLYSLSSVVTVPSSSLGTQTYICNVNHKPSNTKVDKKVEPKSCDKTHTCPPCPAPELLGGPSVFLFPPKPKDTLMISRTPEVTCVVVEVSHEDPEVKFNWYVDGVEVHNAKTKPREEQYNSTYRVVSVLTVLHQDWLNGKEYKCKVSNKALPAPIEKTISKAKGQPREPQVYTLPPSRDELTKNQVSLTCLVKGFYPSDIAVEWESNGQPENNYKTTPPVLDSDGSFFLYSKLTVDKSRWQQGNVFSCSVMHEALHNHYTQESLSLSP
light: DIVMTQSPLSLPVTPGEPASISCQASESLVHSNRNTYLHWYLQKPGQSPQLLIYKVSNRFSGVPDRFSGSGSGTDFTLKISRVEAEDVGVYYCSQNTHVPPTFGQGTKVEIERTVAAPSVFIFPPSDEQLKSGTASVVCLLNNFYPREAKVQWKVDNALQSGNSQESVTEQDSKDSTYSLSSTLTLSKADYEKHKVYACEVTHQGLSSPVTKSFNRGEC
notes: Homodimerized; both H chains altered; also called Ho Ab D265_10E
In the case of B3, the Ho/Con_1a is 103 % of control.

B4: GpH7-B3 variant (H268_13S)/GpL16-k0 (antibody, human IgG1, kappa)
heavy: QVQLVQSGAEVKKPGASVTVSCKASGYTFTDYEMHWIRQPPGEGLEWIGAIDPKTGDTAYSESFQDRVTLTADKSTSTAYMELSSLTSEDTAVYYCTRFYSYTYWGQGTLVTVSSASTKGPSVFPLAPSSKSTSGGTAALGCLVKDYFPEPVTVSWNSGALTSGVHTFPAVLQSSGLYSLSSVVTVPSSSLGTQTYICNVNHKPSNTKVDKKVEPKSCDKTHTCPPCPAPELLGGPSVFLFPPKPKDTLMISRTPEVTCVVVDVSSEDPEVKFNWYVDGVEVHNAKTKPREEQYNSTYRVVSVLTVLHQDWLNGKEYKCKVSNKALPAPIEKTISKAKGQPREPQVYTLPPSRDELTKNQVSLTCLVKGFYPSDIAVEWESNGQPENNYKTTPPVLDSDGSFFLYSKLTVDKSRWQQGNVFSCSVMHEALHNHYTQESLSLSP
light: DIVMTQSPLSLPVTPGEPASISCQASESLVHSNRNTYLHWYLQKPGQSPQLLIYKVSNRFSGVPDRFSGSGSGTDFTLKISRVEAEDVGVYYCSQNTHVPPTFGQGTKVEIERTVAAPSVFIFPPSDEQLKSGTASVVCLLNNFYPREAKVQWKVDNALQSGNSQESVTEQDSKDSTYSLSSTLTLSKADYEKHKVYACEVTHQGLSSPVTKSFNRGEC
notes: Homodimerized; both H chains altered; also called Ho Ab H268_13S
As for B4, the Ho/Con_1a was 110 % of control.

B5: GpH7-B3 variant (A330_19Q)/GpL16-k0 (antibody, human IgG1, kappa)
heavy: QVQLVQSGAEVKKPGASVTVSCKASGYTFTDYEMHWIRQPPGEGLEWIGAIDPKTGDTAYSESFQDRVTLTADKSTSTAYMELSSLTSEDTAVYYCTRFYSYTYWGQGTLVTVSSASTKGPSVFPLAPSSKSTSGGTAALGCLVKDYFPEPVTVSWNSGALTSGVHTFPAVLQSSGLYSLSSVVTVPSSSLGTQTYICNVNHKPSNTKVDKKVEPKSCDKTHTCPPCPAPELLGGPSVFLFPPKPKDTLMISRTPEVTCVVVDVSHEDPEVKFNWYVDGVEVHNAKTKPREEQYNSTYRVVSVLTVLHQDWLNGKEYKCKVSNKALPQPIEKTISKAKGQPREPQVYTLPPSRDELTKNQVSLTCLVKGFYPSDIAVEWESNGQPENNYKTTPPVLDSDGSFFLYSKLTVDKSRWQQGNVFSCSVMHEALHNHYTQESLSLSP
light: DIVMTQSPLSLPVTPGEPASISCQASESLVHSNRNTYLHWYLQKPGQSPQLLIYKVSNRFSGVPDRFSGSGSGTDFTLKISRVEAEDVGVYYCSQNTHVPPTFGQGTKVEIERTVAAPSVFIFPPSDEQLKSGTASVVCLLNNFYPREAKVQWKVDNALQSGNSQESVTEQDSKDSTYSLSSTLTLSKADYEKHKVYACEVTHQGLSSPVTKSFNRGEC
notes: Homodimerized; both H chains altered; also called Ho Ab A330_19Q
For the molecule B5, the Ho/Con_1a was 106 % of control.

B6: GpH7-B3 variant (A330_10E)/GpL16-k0 (antibody, human IgG1, kappa)
heavy: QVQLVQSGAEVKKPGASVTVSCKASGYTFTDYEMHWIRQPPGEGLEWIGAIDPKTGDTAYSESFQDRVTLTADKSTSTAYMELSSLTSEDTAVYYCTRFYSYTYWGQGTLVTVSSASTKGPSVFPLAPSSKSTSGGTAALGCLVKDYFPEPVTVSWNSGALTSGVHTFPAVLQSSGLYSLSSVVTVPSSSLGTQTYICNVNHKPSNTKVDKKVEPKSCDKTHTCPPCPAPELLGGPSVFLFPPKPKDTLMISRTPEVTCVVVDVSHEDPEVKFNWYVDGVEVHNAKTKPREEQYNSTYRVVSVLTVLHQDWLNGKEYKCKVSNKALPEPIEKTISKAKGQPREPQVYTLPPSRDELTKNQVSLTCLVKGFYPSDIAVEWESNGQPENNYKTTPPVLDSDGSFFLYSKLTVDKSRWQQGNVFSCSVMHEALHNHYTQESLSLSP
light: DIVMTQSPLSLPVTPGEPASISCQASESLVHSNRNTYLHWYLQKPGQSPQLLIYKVSNRFSGVPDRFSGSGSGTDFTLKISRVEAEDVGVYYCSQNTHVPPTFGQGTKVEIERTVAAPSVFIFPPSDEQLKSGTASVVCLLNNFYPREAKVQWKVDNALQSGNSQESVTEQDSKDSTYSLSSTLTLSKADYEKHKVYACEVTHQGLSSPVTKSFNRGEC
notes: Homodimerized; both H chains altered; also called Ho Ab A330_10E
On to B6, for which the Ho/Con_1a was 108 % of control.

B7: GpH7-B3 variant (A330_04F)/GpL16-k0 (antibody, human IgG1, kappa)
heavy: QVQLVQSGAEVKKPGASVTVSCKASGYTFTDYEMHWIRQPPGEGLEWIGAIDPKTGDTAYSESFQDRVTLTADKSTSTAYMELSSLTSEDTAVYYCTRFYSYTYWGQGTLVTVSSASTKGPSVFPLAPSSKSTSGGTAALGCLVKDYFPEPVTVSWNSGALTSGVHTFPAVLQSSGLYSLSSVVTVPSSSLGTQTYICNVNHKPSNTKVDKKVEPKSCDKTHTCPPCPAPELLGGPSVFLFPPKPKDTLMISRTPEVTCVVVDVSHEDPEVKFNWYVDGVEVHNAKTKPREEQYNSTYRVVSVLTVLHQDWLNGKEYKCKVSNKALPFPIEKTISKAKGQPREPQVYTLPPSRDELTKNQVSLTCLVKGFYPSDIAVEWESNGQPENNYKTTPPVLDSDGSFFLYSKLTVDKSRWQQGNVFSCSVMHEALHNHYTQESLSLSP
light: DIVMTQSPLSLPVTPGEPASISCQASESLVHSNRNTYLHWYLQKPGQSPQLLIYKVSNRFSGVPDRFSGSGSGTDFTLKISRVEAEDVGVYYCSQNTHVPPTFGQGTKVEIERTVAAPSVFIFPPSDEQLKSGTASVVCLLNNFYPREAKVQWKVDNALQSGNSQESVTEQDSKDSTYSLSSTLTLSKADYEKHKVYACEVTHQGLSSPVTKSFNRGEC
notes: Homodimerized; both H chains altered; also called Ho Ab A330_04F
In the case of B7, the Ho/Con_1a is 107 % of control.

B8: GpH7-B3 variant (S337_07I)/GpL16-k0 (antibody, human IgG1, kappa)
heavy: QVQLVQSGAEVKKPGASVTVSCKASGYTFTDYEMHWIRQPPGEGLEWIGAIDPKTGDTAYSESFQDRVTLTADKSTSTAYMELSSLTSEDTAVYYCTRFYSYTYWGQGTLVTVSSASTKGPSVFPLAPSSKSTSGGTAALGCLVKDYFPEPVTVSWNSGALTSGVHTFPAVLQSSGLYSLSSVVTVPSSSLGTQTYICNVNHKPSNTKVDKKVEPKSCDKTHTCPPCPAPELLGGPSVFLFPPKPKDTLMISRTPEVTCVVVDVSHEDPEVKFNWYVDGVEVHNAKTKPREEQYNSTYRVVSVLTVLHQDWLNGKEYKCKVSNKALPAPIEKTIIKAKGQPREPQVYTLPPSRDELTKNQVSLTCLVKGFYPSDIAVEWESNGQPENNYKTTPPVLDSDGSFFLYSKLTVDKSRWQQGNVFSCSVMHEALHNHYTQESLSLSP
light: DIVMTQSPLSLPVTPGEPASISCQASESLVHSNRNTYLHWYLQKPGQSPQLLIYKVSNRFSGVPDRFSGSGSGTDFTLKISRVEAEDVGVYYCSQNTHVPPTFGQGTKVEIERTVAAPSVFIFPPSDEQLKSGTASVVCLLNNFYPREAKVQWKVDNALQSGNSQESVTEQDSKDSTYSLSSTLTLSKADYEKHKVYACEVTHQGLSSPVTKSFNRGEC
notes: Homodimerized; both H chains altered; also called Ho Ab S337_07I
As for B8, the Ho/Con_1a was 105 % of control.

B9: GpH7-B3 variant (I336_14T)/GpL16-k0 (antibody, human IgG1, kappa)
heavy: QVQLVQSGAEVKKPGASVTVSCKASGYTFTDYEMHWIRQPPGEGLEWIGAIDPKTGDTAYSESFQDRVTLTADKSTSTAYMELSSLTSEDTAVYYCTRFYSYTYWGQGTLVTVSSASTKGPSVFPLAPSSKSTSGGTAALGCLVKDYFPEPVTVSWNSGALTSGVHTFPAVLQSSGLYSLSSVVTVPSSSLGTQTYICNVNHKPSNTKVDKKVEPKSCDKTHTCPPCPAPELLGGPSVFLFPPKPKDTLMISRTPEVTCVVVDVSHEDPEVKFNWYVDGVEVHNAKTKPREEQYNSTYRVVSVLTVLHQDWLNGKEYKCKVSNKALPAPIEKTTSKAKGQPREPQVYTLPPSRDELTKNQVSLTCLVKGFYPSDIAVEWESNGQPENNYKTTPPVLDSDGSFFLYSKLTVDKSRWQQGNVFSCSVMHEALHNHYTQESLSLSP
light: DIVMTQSPLSLPVTPGEPASISCQASESLVHSNRNTYLHWYLQKPGQSPQLLIYKVSNRFSGVPDRFSGSGSGTDFTLKISRVEAEDVGVYYCSQNTHVPPTFGQGTKVEIERTVAAPSVFIFPPSDEQLKSGTASVVCLLNNFYPREAKVQWKVDNALQSGNSQESVTEQDSKDSTYSLSSTLTLSKADYEKHKVYACEVTHQGLSSPVTKSFNRGEC
notes: Homodimerized; both H chains altered; also called Ho Ab I336_14T
As to B9, the Ho/Con_1a was 111 % of control.

B10: GpH7-B3 variant (I336_11K)/GpL16-k0 (antibody, human IgG1, kappa)
heavy: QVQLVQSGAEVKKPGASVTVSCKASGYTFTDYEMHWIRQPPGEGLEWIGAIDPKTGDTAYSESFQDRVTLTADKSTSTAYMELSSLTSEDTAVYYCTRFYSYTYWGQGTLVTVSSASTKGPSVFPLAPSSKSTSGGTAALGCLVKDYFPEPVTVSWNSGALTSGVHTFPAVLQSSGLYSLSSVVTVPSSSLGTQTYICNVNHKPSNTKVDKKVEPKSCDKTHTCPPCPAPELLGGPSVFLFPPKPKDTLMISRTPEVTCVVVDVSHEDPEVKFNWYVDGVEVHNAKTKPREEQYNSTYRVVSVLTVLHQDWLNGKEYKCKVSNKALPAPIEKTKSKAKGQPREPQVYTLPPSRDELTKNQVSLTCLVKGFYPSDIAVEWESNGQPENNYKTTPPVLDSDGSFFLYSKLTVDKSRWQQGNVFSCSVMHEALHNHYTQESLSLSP
light: DIVMTQSPLSLPVTPGEPASISCQASESLVHSNRNTYLHWYLQKPGQSPQLLIYKVSNRFSGVPDRFSGSGSGTDFTLKISRVEAEDVGVYYCSQNTHVPPTFGQGTKVEIERTVAAPSVFIFPPSDEQLKSGTASVVCLLNNFYPREAKVQWKVDNALQSGNSQESVTEQDSKDSTYSLSSTLTLSKADYEKHKVYACEVTHQGLSSPVTKSFNRGEC
notes: Homodimerized; both H chains altered; also called Ho Ab I336_11K
For the molecule B10, the Ho/Con_1a was 107 % of control.

B11: GpH7-B3 variant (S337_06M)/GpL16-k0 (antibody, human IgG1, kappa)
heavy: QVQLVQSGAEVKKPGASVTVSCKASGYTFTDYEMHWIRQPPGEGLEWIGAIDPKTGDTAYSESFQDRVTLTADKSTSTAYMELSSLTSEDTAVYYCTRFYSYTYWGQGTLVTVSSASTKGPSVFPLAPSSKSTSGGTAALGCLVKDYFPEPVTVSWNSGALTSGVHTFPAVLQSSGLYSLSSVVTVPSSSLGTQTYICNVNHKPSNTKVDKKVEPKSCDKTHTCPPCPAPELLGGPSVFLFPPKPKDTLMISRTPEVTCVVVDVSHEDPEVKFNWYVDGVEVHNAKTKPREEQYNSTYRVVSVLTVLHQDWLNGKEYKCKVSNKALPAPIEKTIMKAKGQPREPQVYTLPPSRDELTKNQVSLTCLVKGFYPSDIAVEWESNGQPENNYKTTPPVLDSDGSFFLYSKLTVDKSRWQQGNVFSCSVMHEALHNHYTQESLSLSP
light: DIVMTQSPLSLPVTPGEPASISCQASESLVHSNRNTYLHWYLQKPGQSPQLLIYKVSNRFSGVPDRFSGSGSGTDFTLKISRVEAEDVGVYYCSQNTHVPPTFGQGTKVEIERTVAAPSVFIFPPSDEQLKSGTASVVCLLNNFYPREAKVQWKVDNALQSGNSQESVTEQDSKDSTYSLSSTLTLSKADYEKHKVYACEVTHQGLSSPVTKSFNRGEC
notes: Homodimerized; both H chains altered; also called Ho Ab S337_06M
Regarding B11, the Ho/Con_1a is 102 % of control.
